As a reminder, the EC50 is the concentration that produces a half-maximal response. A higher EC50 goes with a less potent agent.

The source of these data is patent EP4782541A1 (Nanjing Probio Biotech Co., Ltd., dated 2026).

B1: BsAb-17 (bispecific antibody, human IgG1, lambda)
chain: EVQLVESGGGLVQPGGSLRLSCAASGRSFSSFQMGWFRQAPGKEREFVAASGWSGGPTYYWDSVIGRFTISTDNSKNTLYLQMNSLRAEDTAVYYCYEDRVLSGRHVRYWGQGTLVTVSSDKTHTCPPCPAPESTRGPSVFLFPPKPKDTLMISRTPEVTCVVVDVSHEDPEVKFNWYVDGVEVHNAKTKPREEQYNSTYRVVSVLTVLHQDWLNGKEYKCKVSNKALPAPIEKTISKAKGQPREPQVCTLPPSRDELTKNQVSLSCAVKGFYPSDIAVEWESNGQPENNYKTTPPVLDSDGSFFLVSKLTVDKSRWQQGNVFSCSVMHEALHNHYTQKSLSLSPGK
heavy: EVQLVESGGGLVQPGGSLRLSCAASGRSFSSFQMGWFRQAPGKEREFVAASGWSGGPTYYWDSVIGRFTISTDNSKNTLYLQMNSLRAEDTAVYYCYEDRVLSGRHVRYWGQGTLVTVSSGGGGSGGGGSGGGGSEVQLVESGGGLVQPGRSLRLSCAASGFTFNTYAMNWVRQAPGKGLEWVARIRSKYNNYATYYADSVKDRFTISRDDSKSIAYLQMNSLKTEDTAVYYCVRHGNFGNSYVSWFAYWGQGTLVTVSSASTKGPSVFPLAPSSKSTSGGTAALGCLVKDYFPEPVTVSWNSGALTSGVHTFPAVLQSSGLYSLSSVVTVPSSSLGTQTYICNVNHKPSNTKVDKKVEPKSCDKTHTCPPCPAPESTRGPSVFLFPPKPKDTLMISRTPEVTCVVVDVSHEDPEVKFNWYVDGVEVHNAKTKPREEQYNSTYRVVSVLTVLHQDWLNGKEYKCKVSNKALPAPIEKTISKAKGQPREPQVYTLPPCRDELTKNQVSLWCLVKGFYPSDIAVEWESNGQPENNYKTTPPVLDSDGSFFLYSKLTVDKSRWQQGNVFSCSVMHEALHNHYTQKSLSLSPGK
light: QTVVTQEPSLTVSPGGTVTLTCRSSTGAVTTSNYANWVQQKPGQAPRGLIGGTNKRAPGVPARFSGSLLGGKAALTLSGVQPEDEAEYFCALWYSNLWVFGGGTKLTVLGQPKAAPSVTLFPPSSEELQANKATLVCLISDFYPGAVTVAWKADSSPVKAGVETTTPSKQSNNKYAASSYLSLTPEQWKSHRSYSCQVTHEGSTVEKTVAPTECS
B2: BsAb-3 (bispecific antibody, human IgG1, lambda)
chain: QVQLVESGGGVVQPGGSLRLSCAASGFVLRVNTVSWYRQAPGKQRELVALITSESNEYYDDSVKGRFTISRDNAKNTIYLHMNSLKPEDTGVYFCNFITTWGQGTQVTVSSDKTHTCPPCPAPESTRGPSVFLFPPKPKDTLMISRTPEVTCVVVDVSHEDPEVKFNWYVDGVEVHNAKTKPREEQYNSTYRVVSVLTVLHQDWLNGKEYKCKVSNKALPAPIEKTISKAKGQPREPQVCTLPPSRDELTKNQVSLSCAVKGFYPSDIAVEWESNGQPENNYKTTPPVLDSDGSFFLVSKLTVDKSRWQQGNVFSCSVMHEALHNHYTQKSLSLSPGK
heavy: EVQLVESGGGLVQPGRSLRLSCAASGFTFNTYAMNWVRQAPGKGLEWVARIRSKYNNYATYYADSVKDRFTISRDDSKSIAYLQMNSLKTEDTAVYYCVRHGNFGNSYVSWFAYWGQGTLVTVSSASTKGPSVFPLAPSSKSTSGGTAALGCLVKDYFPEPVTVSWNSGALTSGVHTFPAVLQSSGLYSLSSVVTVPSSSLGTQTYICNVNHKPSNTKVDKKVEPKSCDKTHTCPPCPAPESTRGPSVFLFPPKPKDTLMISRTPEVTCVVVDVSHEDPEVKFNWYVDGVEVHNAKTKPREEQYNSTYRVVSVLTVLHQDWLNGKEYKCKVSNKALPAPIEKTISKAKGQPREPQVYTLPPCRDELTKNQVSLWCLVKGFYPSDIAVEWESNGQPENNYKTTPPVLDSDGSFFLYSKLTVDKSRWQQGNVFSCSVMHEALHNHYTQKSLSLSPGK
light: QTVVTQEPSLTVSPGGTVTLTCRSSTGAVTTSNYANWVQQKPGQAPRGLIGGTNKRAPGVPARFSGSLLGGKAALTLSGVQPEDEAEYFCALWYSNLWVFGGGTKLTVLGQPKAAPSVTLFPPSSEELQANKATLVCLISDFYPGAVTVAWKADSSPVKAGVETTTPSKQSNNKYAASSYLSLTPEQWKSHRSYSCQVTHEGSTVEKTVAPTECS
notes: also called BsAb-03
B3: BsAb-2 (bispecific antibody, human IgG1, lambda)
chain: EVQLVESGGGLVQPGGSLRLSCAASYFISRFYAVGWYRQAPGKQRELVARISSGGWTYYADSVKGRFTISIDNSKNTLYLQMNSLRAEDTAVYYCNARNLWGQGTLVTVSSDKTHTCPPCPAPESTRGPSVFLFPPKPKDTLMISRTPEVTCVVVDVSHEDPEVKFNWYVDGVEVHNAKTKPREEQYNSTYRVVSVLTVLHQDWLNGKEYKCKVSNKALPAPIEKTISKAKGQPREPQVCTLPPSRDELTKNQVSLSCAVKGFYPSDIAVEWESNGQPENNYKTTPPVLDSDGSFFLVSKLTVDKSRWQQGNVFSCSVMHEALHNHYTQKSLSLSPGK
heavy: EVQLVESGGGLVQPGRSLRLSCAASGFTFNTYAMNWVRQAPGKGLEWVARIRSKYNNYATYYADSVKDRFTISRDDSKSIAYLQMNSLKTEDTAVYYCVRHGNFGNSYVSWFAYWGQGTLVTVSSASTKGPSVFPLAPSSKSTSGGTAALGCLVKDYFPEPVTVSWNSGALTSGVHTFPAVLQSSGLYSLSSVVTVPSSSLGTQTYICNVNHKPSNTKVDKKVEPKSCDKTHTCPPCPAPESTRGPSVFLFPPKPKDTLMISRTPEVTCVVVDVSHEDPEVKFNWYVDGVEVHNAKTKPREEQYNSTYRVVSVLTVLHQDWLNGKEYKCKVSNKALPAPIEKTISKAKGQPREPQVYTLPPCRDELTKNQVSLWCLVKGFYPSDIAVEWESNGQPENNYKTTPPVLDSDGSFFLYSKLTVDKSRWQQGNVFSCSVMHEALHNHYTQKSLSLSPGK
light: QTVVTQEPSLTVSPGGTVTLTCRSSTGAVTTSNYANWVQQKPGQAPRGLIGGTNKRAPGVPARFSGSLLGGKAALTLSGVQPEDEAEYFCALWYSNLWVFGGGTKLTVLGQPKAAPSVTLFPPSSEELQANKATLVCLISDFYPGAVTVAWKADSSPVKAGVETTTPSKQSNNKYAASSYLSLTPEQWKSHRSYSCQVTHEGSTVEKTVAPTECS
notes: also called BsAb-02
B4: BsAb-10 (bispecific antibody, human IgG1, lambda)
chain: EVQLVESGGGLVQPGGSLRLSCAASYFISRFYAVGWYRQAPGKQRELVARISSGGWTYYADSVKGRFTISIDNSKNTLYLQMNSLRAEDTAVYYCNARNLWGQGTLVTVSSDKTHTCPPCPAPESTRGPSVFLFPPKPKDTLMISRTPEVTCVVVDVSHEDPEVKFNWYVDGVEVHNAKTKPREEQYNSTYRVVSVLTVLHQDWLNGKEYKCKVSNKALPAPIEKTISKAKGQPREPQVCTLPPSRDELTKNQVSLSCAVKGFYPSDIAVEWESNGQPENNYKTTPPVLDSDGSFFLVSKLTVDKSRWQQGNVFSCSVMHEALHNHYTQKSLSLSPGK
heavy: EVQLVESGGGLVQPGGSLRLSCAASYFISRFYAVGWYRQAPGKQRELVARISSGGWTYYADSVKGRFTISIDNSKNTLYLQMNSLRAEDTAVYYCNARNLWGQGTLVTVSSGGGGSGGGGSGGGGSEVQLVESGGGLVQPGRSLRLSCAASGFTFNTYAMNWVRQAPGKGLEWVARIRSKYNNYATYYADSVKDRFTISRDDSKSIAYLQMNSLKTEDTAVYYCVRHGNFGNSYVSWFAYWGQGTLVTVSSASTKGPSVFPLAPSSKSTSGGTAALGCLVKDYFPEPVTVSWNSGALTSGVHTFPAVLQSSGLYSLSSVVTVPSSSLGTQTYICNVNHKPSNTKVDKKVEPKSCDKTHTCPPCPAPESTRGPSVFLFPPKPKDTLMISRTPEVTCVVVDVSHEDPEVKFNWYVDGVEVHNAKTKPREEQYNSTYRVVSVLTVLHQDWLNGKEYKCKVSNKALPAPIEKTISKAKGQPREPQVYTLPPCRDELTKNQVSLWCLVKGFYPSDIAVEWESNGQPENNYKTTPPVLDSDGSFFLYSKLTVDKSRWQQGNVFSCSVMHEALHNHYTQKSLSLSPGK
light: QTVVTQEPSLTVSPGGTVTLTCRSSTGAVTTSNYANWVQQKPGQAPRGLIGGTNKRAPGVPARFSGSLLGGKAALTLSGVQPEDEAEYFCALWYSNLWVFGGGTKLTVLGQPKAAPSVTLFPPSSEELQANKATLVCLISDFYPGAVTVAWKADSSPVKAGVETTTPSKQSNNKYAASSYLSLTPEQWKSHRSYSCQVTHEGSTVEKTVAPTECS

The target in the assay is T1, human CD3 (on Jurkat cells) (human, UniProt P07766 23-207; P09693 23-182; P04234 22-171).
T1 construct: whole, on cells
T1 sequence (P07766 23-207, chain 1 of 3): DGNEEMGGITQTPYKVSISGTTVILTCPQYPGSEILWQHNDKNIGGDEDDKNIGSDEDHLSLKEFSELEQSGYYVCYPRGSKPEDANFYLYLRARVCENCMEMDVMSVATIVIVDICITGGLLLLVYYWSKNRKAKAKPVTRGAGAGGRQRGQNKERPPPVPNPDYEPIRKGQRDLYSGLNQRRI
T1 sequence (P09693 23-182, chain 2 of 3): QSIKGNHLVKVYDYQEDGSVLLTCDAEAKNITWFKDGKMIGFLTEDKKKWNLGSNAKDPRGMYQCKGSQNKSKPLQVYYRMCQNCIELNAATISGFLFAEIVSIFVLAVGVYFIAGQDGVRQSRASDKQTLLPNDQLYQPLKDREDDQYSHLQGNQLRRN
T1 sequence (P04234 22-171, chain 3 of 3): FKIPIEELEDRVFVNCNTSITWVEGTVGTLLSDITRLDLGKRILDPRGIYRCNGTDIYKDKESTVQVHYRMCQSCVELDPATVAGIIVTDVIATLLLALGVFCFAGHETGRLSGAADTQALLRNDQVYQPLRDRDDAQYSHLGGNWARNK
Briefly: flow cytometry on Jurkat cells expressing human CD3. Background: In flow cytometry, cells or beads pass a laser one at a time.
In turn, B1 had a half-maximal effective concentration (EC50) of 4.02 nM.
As for B2, the 50% effective concentration (EC50) was determined as 6.66 nM.
In the case of B3 it was 0.329 nM; in that of B4, 2.84 nM.
